US20260356960 (published 2026)
Blank lines part the entries; values can stand above or below the binder they belong to. Where no end group is shown, it is not given here.

How the values were obtained:
sST2 recombinant = molecular target: T1, sST2 recombinant (human); experiment: ELISA
T1 chain: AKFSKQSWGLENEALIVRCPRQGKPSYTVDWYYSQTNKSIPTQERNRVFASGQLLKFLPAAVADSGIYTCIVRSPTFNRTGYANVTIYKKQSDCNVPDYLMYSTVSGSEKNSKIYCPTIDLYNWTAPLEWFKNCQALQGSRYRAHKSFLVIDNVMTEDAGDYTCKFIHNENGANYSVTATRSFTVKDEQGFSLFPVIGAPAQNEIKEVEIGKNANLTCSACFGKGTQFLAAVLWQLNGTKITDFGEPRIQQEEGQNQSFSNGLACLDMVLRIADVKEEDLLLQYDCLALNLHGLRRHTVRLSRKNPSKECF

SKECF peptide = molecular target: T2, SKECF peptide (human, not fully specified); experiment: SPR
T2 chain: SKECF

Kd (sST2 recombinant): 23 µM
B1: scFv-αsST2 (scFv 96-1) (antibody)
chain: MQVQLQQWGAGLLKPSETLSLTCAVYGGSFSGYYWSWIRQPPGKGLEWIGEINHSGSTNYNPSLKSRVTVSLDTSKNQFSLKLSSVTAADTAVYYCARGRGLVRFDSWGQGTTVTVSSGGGGSGGGGSGGGGSEIVLTQSPGTLSLSPGDRATLSCRASQFVGSSSVAWYQQRPGQAPRLLIYAAVSRASGIPDRFSGGGSGTDFTLTISRLEPEDSAVYYCLQYGSALYTFGQGTKLEIK
modifications: listing feature

Kd (SKECF peptide): 1.71 µM
B2: scFv-αsST2 (scFv 96-1) (antibody)
chain: B1 chain
